From the supplement of paper PMC7877785
± gives the uncertainty stated by the source.

Assay: self-splicing fitness, log relative to wild type (ln ratio); higher = more splicing; Tetrahymena group I intron in knt gene, E. coli kanamycin selection, DiMSum; sequences stand for … in CUCUCU…GGAGGGAAAAGUUAUCAGGCAUGCACCUGGUAGCUAGUCUUUAAACCAAUAGAUUGCAUCGGUUUAAAAGGCAAGACCGUCAAAUUGCGGGAAAGGGGUCAACAGCCGUUCAGUACCAAGUCUCAGGGGAAACUUUGAGAUGGCCUUGCAAAGGGUAUGGUAAUAAGCUGACGGACAUGGUCCUAACCACGCAGCCAAGUCCUAAGUCAACAGAUCUUCUGUUGAUAUGGAUGCAGUUCACAGACUAAAUGUCGGUCGGGGAAGAUGUAUUCUUCUCAUAAGAUAUAGUCGGACCUCUCCUUAAUGGGAGCUAGCGGAUGAAGUGAUGCAACACUGGAGCCGCUGGGAACUAAUUUGUAUGCGAAAGUAUAUUGAUUAGUUUUGGAGUACUCGUGGUCG
Procedure, shortened: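 Six replicate transformations of E. coli BL21(DE3) with a pET-22b(+) library were grown overnight at 37°C or 30°C. The library randomised all eight P1ex-region intron nucleotides, the intron lying in the knt kanamycin-resistance gene, and plates were LB agar with or without 25 μg/mL kanamycin plus 100 μg/mL carbenicillin, 50 μM IPTG and 0.2% rhamnose. Pooled colonies were amplicon-sequenced on an Illumina HiSeq 2500, and fitness is the DiMSum error-weighted combination of wild-type-normalised replicate fold changes, kanamycin versus none.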

| Sequence | self-splicing fitness (ln) (30 °C) | self-splicing fitness (ln) (37 °C) |
| --- | --- | --- |
| CGGCAGCAAUAUUACGACGU | -1.45 ± 0.066 | -0.471 ± 0.071 |
| CGGCAGCAAUAUUACGAUAA | -2.07 ± 0.21 | -1.96 ± 0.34 |
| CGGCAGCAAUAUUACGAUCU | -0.274 ± 0.084 | 0.148 ± 0.11 |
| CGGCAGCAAUAUUACGCACC | -2.89 ± 0.17 | -2.05 ± 0.23 |
| CGGCAGCAAUAUUACGCCCU | -1.01 ± 0.39 | 0.318 ± 0.29 |
| CGGCAGCAAUAUUACGCCUU | -0.474 ± 0.097 | -0.622 ± 0.12 |
| CGGCAGCAAUAUUACGCUGU | -3.8 ± 0.14 | -2.29 ± 0.15 |
| CGGCAGCAAUAUUACGGAUU | -3.9 ± 0.31 | -2.24 ± 0.21 |
| CGGCAGCAAUAUUACGGCGA | -3.18 ± 0.16 | -2.72 ± 0.18 |
| CGGCAGCAAUAUUACGGCUU | -0.457 ± 0.065 | 0.278 ± 0.095 |
| CGGCAGCAAUAUUACGGUUC | -2.16 ± 0.093 | -0.799 ± 0.098 |
| CGGCAGCAAUAUUACGUAAC | -1.24 ± 0.21 | – |
| CGGCAGCAAUAUUACGUACU | -0.872 ± 0.052 | -0.714 ± 0.06 |
| CGGCAGCAAUAUUACGUUGA | -2.63 ± 0.19 | -1.8 ± 0.16 |
| CGGCAGCAAUAUUACGUUGC | -3.03 ± 0.27 | -2.57 ± 0.33 |
| CGGGAGCAAUAUUACGACCU | -0.87 ± 0.14 | -0.864 ± 0.18 |
| CGGGAGCAAUAUUACGCAGC | -3.21 ± 0.24 | -2.72 ± 0.43 |
| CGGGAGCAAUAUUACGCGCC | – | -1.51 ± 0.43 |
| CGGGAGCAAUAUUACGGAGC | -2.32 ± 0.37 | -0.632 ± 0.25 |
| CGGGAGCAAUAUUACGGCUA | -2.44 ± 0.39 | – |
| CGGGAGCAAUAUUACGGGAC | -3.57 ± 0.3 | -3.25 ± 0.4 |

| Sequence | self-splicing fitness (ln) (30 °C) | self-splicing fitness (ln) (37 °C) |
| --- | --- | --- |
| CGGGAGCAAUAUUACGGGCA | – | -1.14 ± 0.42 |
| CGGGAGCAAUAUUACGGGGU | -2.03 ± 0.42 | – |
| CGGGAGCAAUAUUACGGGUG | -3.26 ± 0.28 | -2.07 ± 0.28 |
| CGGGAGCAAUAUUACGGUAC | -2.19 ± 0.38 | – |
| CGGGAGCAAUAUUACGGUUU | – | -1.19 ± 0.32 |
| CGGGAGCAAUAUUACGUAAA | -2.94 ± 0.34 | – |
| CGGGAGCAAUAUUACGUACU | – | -1.86 ± 0.38 |
| CGGGAGCAAUAUUACGUCAU | -3.09 ± 0.49 | – |
| CGGGAGCAAUAUUACGUCCG | -1.07 ± 0.43 | – |
| CGGGAGCAAUAUUACGUUCA | -3.69 ± 0.25 | -2.53 ± 0.26 |
| CGGGAGCAAUAUUACGUUUC | -3.92 ± 0.46 | – |
| CGGUAGCAAUAUUACGAAGA | -2.99 ± 0.42 | -2.32 ± 0.29 |
| CGGUAGCAAUAUUACGAUUC | -2.84 ± 0.17 | -1.69 ± 0.13 |
| CGGUAGCAAUAUUACGCAGG | -1.26 ± 0.12 | -1.44 ± 0.18 |
| CGGUAGCAAUAUUACGCCAU | -1.58 ± 0.32 | -2.46 ± 0.39 |
| CGGUAGCAAUAUUACGCCCA | 0.153 ± 0.1 | 0.145 ± 0.17 |
| CGGUAGCAAUAUUACGCGCU | -3.13 ± 0.39 | – |
| CGGUAGCAAUAUUACGCGUU | -3.55 ± 0.31 | -2.13 ± 0.21 |
| CGGUAGCAAUAUUACGCUCG | – | -2.91 ± 0.43 |
| CGGUAGCAAUAUUACGGCCG | -3.76 ± 0.24 | -0.985 ± 0.2 |
| CGGUAGCAAUAUUACGGCUU | -0.935 ± 0.087 | 0.239 ± 0.12 |

| Sequence | self-splicing fitness (ln) (30 °C) | self-splicing fitness (ln) (37 °C) |
| --- | --- | --- |
| CGGUAGCAAUAUUACGGGCG | -0.838 ± 0.12 | 0.0595 ± 0.14 |
| CGGUAGCAAUAUUACGGGUU | -3.51 ± 0.21 | -3.67 ± 0.22 |
| CGGUAGCAAUAUUACGUAAU | -3.97 ± 0.47 | – |
| CGGUAGCAAUAUUACGUCGC | -3.35 ± 0.27 | -2.14 ± 0.22 |
| CGGUAGCAAUAUUACGUCUG | -0.631 ± 0.086 | -0.338 ± 0.11 |
| CGGUAGCAAUAUUACGUGAA | -2.67 ± 0.18 | -1.52 ± 0.19 |
| CGGUAGCAAUAUUACGUUCU | -0.482 ± 0.087 | -0.439 ± 0.1 |
| CGGUAGCAAUAUUACGUUGU | -4.62 ± 0.27 | -2.55 ± 0.15 |
| CGGUAGCAAUAUUACGUUUC | -2.48 ± 0.32 | – |
| CGUAAGCAAUAUUACGAAGU | -3.81 ± 0.18 | -2.51 ± 0.17 |
| CGUAAGCAAUAUUACGACCA | -2.11 ± 0.35 | -0.83 ± 0.25 |
| CGUAAGCAAUAUUACGACCU | -1.97 ± 0.17 | -0.549 ± 0.16 |
| CGUAAGCAAUAUUACGACGA | -1.28 ± 0.21 | -1.69 ± 0.24 |
| CGUAAGCAAUAUUACGAGUG | -2.51 ± 0.13 | -0.853 ± 0.1 |
| CGUAAGCAAUAUUACGAUAG | -1.72 ± 0.093 | -0.661 ± 0.11 |
| CGUAAGCAAUAUUACGAUCU | -2.36 ± 0.15 | -0.243 ± 0.11 |
| CGUAAGCAAUAUUACGCAAA | – | -1.48 ± 0.34 |
| CGUAAGCAAUAUUACGCCUA | – | -2.18 ± 0.27 |
| CGUAAGCAAUAUUACGCCUG | -1.21 ± 0.11 | -0.643 ± 0.12 |
| CGUAAGCAAUAUUACGCGCG | -2.79 ± 0.16 | -1.71 ± 0.23 |
| CGUAAGCAAUAUUACGCGGA | -3.23 ± 0.19 | -1.84 ± 0.16 |

| Sequence | self-splicing fitness (ln) (30 °C) | self-splicing fitness (ln) (37 °C) |
| --- | --- | --- |
| CGUAAGCAAUAUUACGCUUG | -3.54 ± 0.18 | -0.367 ± 0.14 |
| CGUAAGCAAUAUUACGGACC | -0.744 ± 0.11 | -0.0128 ± 0.14 |
| CGUAAGCAAUAUUACGGAGG | -2.16 ± 0.14 | -1.57 ± 0.17 |
| CGUAAGCAAUAUUACGGCAA | -2.37 ± 0.25 | -1.68 ± 0.28 |
| CGUAAGCAAUAUUACGGGAC | -2.9 ± 0.29 | -2.47 ± 0.41 |
| CGUAAGCAAUAUUACGGGCG | -2.87 ± 0.22 | -1.12 ± 0.14 |
| CGUAAGCAAUAUUACGGGGC | -3.43 ± 0.26 | -2.35 ± 0.23 |
| CGUAAGCAAUAUUACGGGGU | -3.79 ± 0.18 | -3.36 ± 0.25 |
| CGUAAGCAAUAUUACGGUUU | -3.8 ± 0.2 | -2.71 ± 0.17 |
| CGUAAGCAAUAUUACGUACG | -3.57 ± 0.25 | -1.59 ± 0.23 |
| CGUAAGCAAUAUUACGUAGA | -4.43 ± 0.3 | -3.25 ± 0.29 |
| CGUAAGCAAUAUUACGUCCA | -2.61 ± 0.17 | -1.25 ± 0.17 |
| CGUAAGCAAUAUUACGUCUU | -3.7 ± 0.22 | -1.37 ± 0.14 |
| CGUAAGCAAUAUUACGUGAC | -3.04 ± 0.15 | -2.33 ± 0.18 |
| CGUAAGCAAUAUUACGUUAG | -1.34 ± 0.072 | -0.964 ± 0.081 |
| CGUAAGCAAUAUUACGUUUA | -1.69 ± 0.18 | -1.41 ± 0.18 |
| CGUCAGCAAUAUUACGAACG | -2.55 ± 0.17 | -1.32 ± 0.18 |
| CGUCAGCAAUAUUACGACAA | -0.159 ± 0.14 | 0.0303 ± 0.14 |
